Assay [1] addresses T1, human CD24 (human, UniProt P25063 27-59, heavily glycosylated, GPI-anchored (as described in the background)).
T1 chain (looked up): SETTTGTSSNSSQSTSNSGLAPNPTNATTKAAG
Briefly: cell-based or functional assay.

Assay [2] deals with T1, human CD24. The experiment in a line: FACS, Nalm1 cells. As for the experimental part: (§1) Sequences of some of antibodies from Table 1 were selected to generate and produce human IgG4 chimeric antibodies. […] The protocol for FACs analysis is described as follows: [0536] a. Digested cells using TrypLE™ Express Enzyme (IX); Centrifuged the harvested cells at 400 g for 5 min and discarding the supernatant. [0537] b. Washed the cells 2 times with cold FACS buffer by centrifuging at 400 g for 5 min and discarding the supernatant. [0538] c. […] Incubate at […] for 1 h. [0539] d. Washed the cells twice by using the condition in step b. Resuspended the cells with 100 μl/well diluted 2nd antibody, incubated at 4 degree for 1 h in the dark. [0540] e. Washed the cells twice by using the condition in step b. Resuspended the cells with 100 μl/well cold FACS buffer. Kept the cells in dark for FACS analysis.
A general note: In flow cytometry, cells or beads pass a laser one at a time.

The target in assay [3] is T1, human CD24. The experiment in a line: FACS, CHOK1-hCD24 cells. The method, then:
as §1

The target of assay [4] is T1, human CD24. The experiment in a line: FACS, 5637 cells. As for the experimental part:
as §1

For assay [5], the target named is T1, human CD24. Briefly: FACS, MDA-MB-468 cells. The method, then: as §1
In assay [6] the target is T1, human CD24. Briefly: FACS, 293F-hCD24 cells. As for the experimental part:
as §1

Assay [7] has as its target T1, human CD24. The experiment in a line: FACS, MCF7 cells. The method, then:
as §1

The target in assay [8] is T1, human CD24. Briefly: FACS, MCF7 cells. The method, then:
(§2) Screening & Expansion: The subcloning plates were screened by Acumen assay and the subclones with good binding ability were expanded to 24-wells for confirmation tests. The specificity and cross-reactivity of these subclones were confirmed with FACs analysis. […] Fluorescent dye-conjugated secondary antibody was used to detect the binding of the primary antibody with the cells. Median fluorescence intensity (MFI) was measured by FACs analysis.

For assay [9], the target named is T1, human CD24. Briefly: FACS, 5637 cells. The method, then: as §2
Assay [10] deals with T1, human CD24. Briefly: FACS, H1975 cells. As for the experimental part:
as §1

Assay [11] has as its target T1, human CD24. The experiment in a line: FACS, H1975 cells. As for the experimental part:
as §2

Assay [12] has as its target T1, human CD24. Briefly: FACS, Nalm1 cells. As for the experimental part:
as §2

Assay [13] concerns the target T1, human CD24. Briefly: FACS, 293F-hCD24 cells. The method, then:
as §2

In assay [14] the target is T1, human CD24. Briefly: FACS, HT-29 cells. The method, then:
as §1

Where only a bound is given, the exact number is not on record here.

B1: ch81A7A10-hIgG4 (antibody, V domains shown)
VH: QVQLKESGPGLVAPLQSLSITCTVSGFSLSSYGVSWVRQLPGKGLEWLGVIWGDGSTDYHSTLTSRLSFSKDNSESQVFLKLNSLQTDDTATYYCAIFYGYDEGFAYWGQGTLVTVSA
VL: ENVLTQSPAIMSAFLGEKVTMSCRASSTVNYMYWYQQKSDASPKVWIYYTSRLAPGVPARFSGSGSGNSFSLTISSMEGEDAATYYCQQFTSSPLTFGAGTKLELR
Consider B1, for which, in the assay with human CD24 [1], the “EC50 (nM), phagocytosis against HT-29 cells” value (shortened to “EC50 (nM), phagocytosis”) came out at 0.157 nM and the “Max phagocytosis Index (%), phagocytosis against HT-29 cells” value (from here on “Max phagocytosis Index (%), phagocytosis”) came to 78.4%.

B2: ch56A7E3-hIgG4 (antibody, V domains shown)
VH: EVQLQQSGPELVKPGASVKIPCKASGYTFTAYNMDWVKQSHGMSLEWIGDINPINGGTIYNQNFEGKATLTVDKSSSTAYLELRSLTSEDTAVYYCARRGSYYYGSSHYALDFWGQGTSVSVSS
VL: DIQMTQITSSLSASLGDRVTITCRASQDISNYLNWYQQKPDGTVKLLIYYTSRLLSGVPSRFSGSGSGTDYSLTISNLEQEDIATYFCQQDHTLPRTFGGGTKLEIR
notes: chimeric
As usually defined, the EC50 is the concentration at which the effect is half-maximal. Take B2: the half-maximal effective concentration (EC50) in the assay with human CD24 [2] stood at 66.4 nM; in the assay with human CD24 [3], 3.04 nM; in the assay with human CD24 [4], 139 nM; in the assay with human CD24 [5] it was 18.7 nM; in the assay with human CD24 [6], 3.7 nM; with human CD24 [7] it was 83.7 nM. In addition, the “Max MFI” value with human CD24 [2] worked out at 80300; with human CD24 [3] it was 54100; with human CD24 [4], 61100; with human CD24 [5] it was 54200; with human CD24 [6], 57100; in the assay with human CD24 [7] it was 22800. Further, in the assay with human CD24 [1], the “EC50 (nM), phagocytosis” value was found to be 4.74 nM. The “Max phagocytosis Index (%), phagocytosis” value with human CD24 [1] was 55.2%.

B3: ch100F2E3-hIgG4 (antibody, V domains shown)
VH: QVQLQQPGAELVRPGSSVKLSCKTSDYTFTSYWMDWVKQRPGQGLEWIGNIYPSDSKTHSNQKFRDKATLTVDKSSSTAYMQLNSLTSEDSAVYYCARRGGYYGYAMDYWGQGTSVTVSS
VL: DIVMTQSPSSLSVSAGEKVTMSCKSSQSLLNSGNQDNYLAWYQQKPGQPPKLLIYGASIRESGVPDRFTGSGSGTDFTLTISSVQAEDLAVYYCQNDHSYPYTFGGGTKLEIK
notes: chimeric
Turning to B3, the EC50 in the assay with human CD24 [2] was 2.78 nM; in the assay with human CD24 [3], above 100 nM; with human CD24 [4], 3.42 nM; with human CD24 [5] it was 7.39 nM; with human CD24 [6], 3.73 nM; in the assay with human CD24 [7] it was 6.85 nM. For the same molecule, the “Max MFI” value with human CD24 [2] is 77700; with human CD24 [3] it was 59300; with human CD24 [4] it was 20200; with human CD24 [5] it was 71900; in the assay with human CD24 [6], 60400; with human CD24 [7] it was 7960. The “EC50 (nM), phagocytosis” value with human CD24 [1] amounted to 1.9 nM. The “Max phagocytosis Index (%), phagocytosis” value in the assay with human CD24 [1] came out at 71.2%.

B4: ch81A1F8-hIgG4 (antibody, V domains shown)
VH: EVQLQQSGPELVKPGASVKISCKATGYLFTGYYMNWVKQSPEKSLEWIGEINPNTGDTNNNQKFKAKATMTVDRSSSTAYMQLKRLTSEDSAVYYCVRRDYGTSLDYWGQGTTLTVSS
VL: DVQITQSPSYLAASPGETITINCRASKSINKYLAWYQEKPGKTNKLLIHSGSTLQSGIPSRFSGSRSGTDFTLTISNLEPEDFAMYYCQQHNEYPITFGAGTKLELK
notes: chimeric; also called chAb81A1F8; ch81A1F8-IgG4
On to B4, for which the EC50 stood at 1.31 nM in the assay with human CD24 [2]; 3240 nM with human CD24 [3]; 2.47 nM with human CD24 [4]; 5.75 nM in the assay with human CD24 [5]; 3.35 nM in the assay with human CD24 [6]; 2.31 nM with human CD24 [7]. The “Max MFI” value in the assay with human CD24 [2] turned out to be 101000; with human CD24 [3] it was 85300; in the assay with human CD24 [4] it was 54100; with human CD24 [5], 90800; with human CD24 [6], 117000; with human CD24 [7], 25400. In addition, the “EC50 (nM), phagocytosis” value with human CD24 [1] was 0.098 nM. Besides, in the assay with human CD24 [1], the “Max phagocytosis Index (%), phagocytosis” value amounted to 76.6%.

B5: ch110D4G4-hIgG4 (antibody, V domains shown)
VH: EVQLQQSGPGLVKPGASVKISCRASGYLFTGYYMNWVKQSPEKSLEWIGEINPNTGDPRYDQKFKAKATLTVDRSSSTAYMHLKSLTSEDSAVYFCARRDYGTSLDYWGQGTTLTVTS
VL: DVQITQSPSYLAASPGETITINCRASKSISKYLAWYQEKPGKTNKLLIYSGSTLQSGIPSRFSGSGSGSDFTLTISSLEPEDFAMYYCQQHNEYPLTFGAGTKLELK
notes: chimeric; also called chAb110D4G4
In the case of B5, the EC50 with human CD24 [2] was found to be 1.95 nM; with human CD24 [3] it was 35.4 nM; with human CD24 [4], 2.18 nM; with human CD24 [5], 5.44 nM; with human CD24 [6] it was 2.82 nM; in the assay with human CD24 [7] it was 2.01 nM. The “Max MFI” value with human CD24 [2] amounted to 111000; in the assay with human CD24 [3] it was 99500; in the assay with human CD24 [4], 49900; with human CD24 [5] it was 89700; with human CD24 [6], 112000; with human CD24 [7], 22700.

B6: ch33E7E12-hIgG1 (antibody, V domains shown)
VH: EVKLEESGGGLVQPGGSMKLSCFVSGFTFSNSWMNWVRQSPEKGLEWVAQIQLKSDNYATRYVESVRGRFIISRDDSKSSVSLQMNNLRTEDTGIYYCSSGTDYWGQGTTLTVSS
VL: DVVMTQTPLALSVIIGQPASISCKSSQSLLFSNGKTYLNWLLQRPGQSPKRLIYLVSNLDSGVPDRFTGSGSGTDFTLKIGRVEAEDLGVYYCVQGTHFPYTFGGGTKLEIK
notes: chimeric
In the case of B6, the concentration for a half-maximal effect (EC50) in the assay with human CD24 [2] came to 5.8 nM; with human CD24 [3] it was 2.27 nM; with human CD24 [4], 6.44 nM; with human CD24 [5] it was 9.07 nM; with human CD24 [6], 3.55 nM; in the assay with human CD24 [7], 4.35 nM. The “Max MFI” value with human CD24 [2] is 109000; with human CD24 [3], 62100; with human CD24 [4], 42900; with human CD24 [5] it was 56700; with human CD24 [6] it was 80900; in the assay with human CD24 [7], 20600. Moreover, the “EC50 (nM), phagocytosis” value in the assay with human CD24 [1] was 0.042 nM. Moreover, the “Max phagocytosis Index (%), phagocytosis” value with human CD24 [1] stood at 80.4%.

B7: 33E7E12 (antibody, V domains shown)
VH: EVKLEESGGGLVQPGGSMKLSCFVSGFTFSNSWMNWVRQSPEKGLEWVAQIQLKSDNYATRYVESVRGRFIISRDDSKSSVSLQMNNLRTEDTGIYYCSSGTDYWGQGTTLTVSS
VL: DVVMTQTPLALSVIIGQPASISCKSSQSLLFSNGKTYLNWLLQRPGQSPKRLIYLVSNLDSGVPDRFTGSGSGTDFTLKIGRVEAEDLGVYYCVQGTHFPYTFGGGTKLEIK
notes: mouse monoclonal antibody
B7: the “FACS MFI” value with human CD24 [8] turned out to be 5410; in the assay with human CD24 [9], 14100; with human CD24 [11], 6110; in the assay with human CD24 [5], 10900; in the assay with human CD24 [12], 45500; with human CD24 [13] it was 24200. For the same molecule, the concentration giving a half-maximal response (EC50) in the assay with human CD24 [10] worked out at 8.15 nM; with human CD24 [2], 6.2 nM; with human CD24 [3], 1.86 nM; in the assay with human CD24 [4], 4.37 nM; with human CD24 [5], 3.45 nM; with human CD24 [14], 3.4 nM. For the same molecule, the figures for the EC50 with human CD24 [6] and with human CD24 [7] were 2.4 nM and 2.38 nM, respectively. In addition, the “Max MFI” value was determined as 45500 in the assay with human CD24 [2], 24100 in the assay with human CD24 [3], 2450 in the assay with human CD24 [14] and 24200 with human CD24 [6].

B8: ch33E7E12-hIgG4 (antibody, V domains shown)
VH: EVKLEESGGGLVQPGGSMKLSCFVSGFTFSNSWMNWVRQSPEKGLEWVAQIQLKSDNYATRYVESVRGRFIISRDDSKSSVSLQMNNLRTEDTGIYYCSSGTDYWGQGTTLTVSS
VL: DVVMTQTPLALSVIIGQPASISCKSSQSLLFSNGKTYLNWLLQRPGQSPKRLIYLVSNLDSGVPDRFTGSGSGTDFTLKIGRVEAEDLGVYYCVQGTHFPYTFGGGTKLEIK
notes: chimeric
Turning to B8, the EC50 in the assay with human CD24 [2] was 11.8 nM; in the assay with human CD24 [3], 2.66 nM; in the assay with human CD24 [4], 7.27 nM; with human CD24 [5] it was 6.8 nM; in the assay with human CD24 [6], 4.56 nM; with human CD24 [7], 4.75 nM. The “Max MFI” value with human CD24 [2] came to 34400; with human CD24 [3], 56600; with human CD24 [4], 25600; with human CD24 [5], 20100; with human CD24 [6], 55200; with human CD24 [7], 16100. Also, the “EC50 (nM), phagocytosis” value with human CD24 [1] is 3.25 nM. For the same molecule, the “Max phagocytosis Index (%), phagocytosis” value with human CD24 [1] is 33.3%.

The values above are taken from patent US20240052052A1 (ANTENGENE BIOLOGICS, published 2024).
